Experimental data: patent US7659376B2, “Antibody that binds glyphosate resistance protein” (priority 2002, dated 2010)

B1: GRG-1: glyphosate resistance protein (SEQ ID NO:2), homologous to EPSP synthases; expressed in E. coli from plasmid pPEH306 (protein)
chain: MKVTIQPGDLTGILQSPASKSSMQRACAAALVAKGISEIINPGHSNDDKAARDIVSRLGARLEDQPDGSLQITSEGVKPVAPFIDCGESGLSIRMFTPIVALSKEEVTIKGSGSLVTRPMDFFDEILPHLGVKVKSNQGKLPLVIQGPLKPADVTVDGSLSSQFLTGLLLAYAAADASDVAIKVTNLKSRPYIDLTLDVMKRFGLKTPENRNYEEFYFKAGNVYDETKMQRYTVEGDWSGGAFLLVAGAIAGPITVRGLDIASTQADKAIVQALMSANAGIAIDAKEIKLHPADLNAFEFDATDCPDLFPPLVALASYCKGETKIKGVSRLAHKESDRGLTLQDEFGKMGVEIHLEGDLMRVIGGKGVKGAEVSSRHDHRIAMACAVAALKAVGETTIEHAEAVNKSYPDFYSDLKQLGGVVSLNHQFNFS
modifications: Enterobacteriaceae
notes: expressed in E. coli from plasmid pPEH306
B2: aroA: wild-type E. coli aroA (EPSP synthase), expressed from plasmid pPEH307 (protein, UniProt P0A6D3 1-427, looked up)
3-phosphoshikimate …: MESLTLQPIARVDGTINLPGSKSVSNRALLLAALAHGKTVLTNLLDSDDVRHMLNALTALGVSYTLSADRTRCEIIGNGGPLHAEGALELFLGNAGTAMRPLAAALCLGSNDIVLTGEPRMKERPIGHLVDALRLGGAKITYLEQENYPPLRLQGGFTGGNVDVDGSVSSQFLTALLMTAPLAPEDTVIRIKGDLVSKPYIDITLNLMKTFGVEIENQHYQQFVVKGGQSYQSPGTYLVEGDASSASYFLAAAAIKGGTVKVTGIGRNSMQGDIRFADVLEKMGATICWGDDYISCTRGELNAIDMDMNHIPDAAMTIATAALFAKGTTTLRNIYNWRVKETDRLFAMATELRKVGAEVEEGHDYIRITPPEKLNFAEIATYNDHRMAMCFSLVALSDTPVTILDPKCTAKTFPDYFEQLARISQAA

Columns and labels:
[1] = test system: E. coli XL1 Blue MRF′; test: Growth of GRG-1 or aroA expressing strains in M9 liquid medium with glyphosate, absorbance at 600 nm at 8 hours; assay type: cell-based; conditions: for absorbance of the culture at 600 nm: 8 hours, mean of three cultures
Source text: Strains engineered to express either GRG-1 or the wild-type E. coli aroA were engineered as described in the following way. A customized expression vector, pPEH304 Cm was constructed. The essential features of pPEH304 Clare the origin of replication from pBR322, a chloramphenicol acetyl transferase gene (for selection and maintenance of the plasmid), the lacI gene, the Ptac promoter and the rrnB transcriptional terminator. The GRG-1 open reading frame was amplified as described in Example 7. […] The aroA open reading frame was amplified by PCR from E. coli strain XL1 Blue MRF′ (Stratagene). During PCR, restriction sites were added to facilitate cloning into pPEH304 Cm.
The PCR products for GRG-1 and aroA were cloned into the expression vector pPEH304 Cm to yield the plasmids pPEH306 and pPEH307, respectively, and transformed into E. coli XL1 Blue MRF′. Correct clones were identified by standard methods known in the art. The sequence of the GRG-1 and aroA open reading frames in expression clones in pPEH306 and pPEH307 were confirmed by DNA sequencing.
Strains were grown to saturation (overnight) in Luria Broth (Sambrook and Russell, 2001, supra) then diluted 1:100 in M9 liquid medium (recipe) containing 0 to 30 mM glyphosate, and supplemented with 10 g glucose, 10 mg Thiamine-HCl and 25 mg L-Proline. High level transcription from the Ptac promoter was stimulated by including 0.1 mM IPTG in a subset of the cultures (noted as +IPTG in Table 7).
Each culture was grown in a 3 ml tube at 37° C. on a culture wheel. There were three replicate tubes of each treatment. After 8 hours of growth, 310 microliters of culture was withdrawn and placed into a 96-well plate. The absorbance of the culture at 600 nm was measured on a Spectramax 96 well plate reader. The experiment was performed in triplicate, and the values in Table 7 reflect the means of three cultures.

[2] = test system: E. coli XL1 Blue MRF′; test: Growth of GRG-1 or aroA expressing strains in M63 liquid medium with glyphosate, absorbance at 600 nm at 24 hours; assay type: cell-based; conditions: M63, +IPTG
Experimental: In addition, these strains engineered to express either GRG-1 or the wild-type E. coli aroA, were tested in another minimal media, M63, with glyphosate concentrations up to 150 mM. 1×M63 was supplemented with 10 g glucose, 10 mg Thiamine-HCl and 25 mg L-Proline. The strains were grown to saturation (overnight) in Luria Broth (Sambrook and Russell, 2001, supra) then washed two times in M63 media (adapted from Current Protocols in Molecular Biology, Greene Publishing and Wiley-Interscience, New York) before being diluted 1:100 in fresh M63 liquid medium containing 0 to 150 mM glyphosate. High level transcription from the Ptac promoter was stimulated by including 0.1 mM IPTG all of the cultures.
Each culture was grown in 2 mls of media in 10 ml tubes at 37° C. in a shaker. At 24 hours, 300 microliters of the culture was withdrawn and placed into a 96-well assay plate. The absorbance of the culture at 600 nm was measured on a Spectromax 96 well plate reader. The values in Table 8 reflect this experiment at 24 hours (NT not tested).

[3] = +IPTG (0.1 mM), 0 mM glyphosate
[4] = +IPTG (0.1 mM), 5 mM glyphosate
[5] = +IPTG (0.1 mM), 10 mM glyphosate
[6] = +IPTG (0.1 mM), 20 mM glyphosate
[7] = +IPTG (0.1 mM), 30 mM glyphosate
[8] = glyphosate concentration 0, 24 hours
[9] = glyphosate concentration 5 (mM), 24 hours
[10] = glyphosate concentration 30 (mM), 24 hours
[11] = glyphosate concentration 60 (mM), 24 hours

Molecule | absorbance of the culture at 600 nm [1, 3] | absorbance of the culture at 600 nm [1, 4] | absorbance of the culture at 600 nm [1, 5] | absorbance of the culture at 600 nm [1, 6] | absorbance of the culture at 600 nm [1, 7] | absorbance of the culture at 600 nm ([1]; no IPTG, 0 mM glyphosate) | absorbance of the culture at 600 nm ([1]; no IPTG, 5 mM glyphosate) | absorbance of the culture at 600 nm ([1]; no IPTG, 10 mM glyphosate) | absorbance of the culture at 600 nm ([1]; no IPTG, 20 mM glyphosate) | absorbance of the culture at 600 nm ([1]; no IPTG, 30 mM glyphosate) | glyphosate concentration in whose presence survival and growth of E. coli is allowed ([1]; summary of Table 7) [mM] | absorbance of the culture at 600 nm [2, 8] | absorbance of the culture at 600 nm [2, 9] | absorbance of the culture at 600 nm [2, 10] | absorbance of the culture at 600 nm [2, 11] | absorbance of the culture at 600 nm ([2]; glyphosate concentration 150 (mM), 24 hours) | glyphosate concentrations that inhibit growth of expressing cells ([1]; summary of Table 7) [mM]
B1 | 0.100 | 0.104 | 0.117 | 0.125 | 0.135 | 0.092 | 0.102 | 0.110 | 0.112 | 0.104 | 30 | 0.4943 | 0.7192 | 0.7884 | 0.789 | 0.951 | –
B2 | 0.075 | 0.068 | 0.063 | 0.056 | 0.052 | 0.095 | 0.048 | 0.046 | 0.047 | 0.048 | – | 0.5982 | 0.1209 | 0.0276 | 0.0298 | – | ≥ 10
